# Reference: patent US20260317446 (published 2026)
# Key:
# YKL-40 A141 = YKL-40 A141 (human); assay: BLI
# YKL-40 A300 = YKL-40 A300 (human); assay: BLI
# YKL-40 A42 = YKL-40 A42 (human); assay: BLI
# YKL-40 A175 = YKL-40 A175 (human); assay: BLI
# YKL-40 A107 = YKL-40 A107 (human); assay: BLI
# YKL-40 A256 = YKL-40 A256 (human); assay: BLI
# YKL-40 R284 = YKL-40 R284 (human); assay: BLI
# YKL-40 A100 = YKL-40 A100 (human); assay: BLI
# YKL-40 A288 = YKL-40 A288 (human); assay: BLI
# YKL-40 A104 = YKL-40 A104 (human); assay: BLI
# YKL-40 A286 = YKL-40 A286 (human); assay: BLI
# YKL-40 A148 = YKL-40 A148 (human); assay: BLI
# YKL-40 A142 = YKL-40 A142 (human); assay: BLI
# YKL-40 A142 (human), sequence (chain, as listed by the source): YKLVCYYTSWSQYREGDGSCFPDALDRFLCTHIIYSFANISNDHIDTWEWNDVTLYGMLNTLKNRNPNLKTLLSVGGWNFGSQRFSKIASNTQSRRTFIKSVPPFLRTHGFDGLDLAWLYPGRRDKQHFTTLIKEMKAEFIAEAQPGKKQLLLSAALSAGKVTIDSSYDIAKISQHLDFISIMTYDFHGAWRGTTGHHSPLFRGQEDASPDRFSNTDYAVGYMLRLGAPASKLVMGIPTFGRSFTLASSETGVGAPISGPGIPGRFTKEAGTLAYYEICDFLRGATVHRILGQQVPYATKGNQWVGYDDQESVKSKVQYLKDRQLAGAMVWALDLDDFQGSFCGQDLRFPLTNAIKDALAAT
# YKL-40 A146 = YKL-40 A146 (human); assay: BLI
# YKL-40 A146 (human), sequence (chain, as listed by the source): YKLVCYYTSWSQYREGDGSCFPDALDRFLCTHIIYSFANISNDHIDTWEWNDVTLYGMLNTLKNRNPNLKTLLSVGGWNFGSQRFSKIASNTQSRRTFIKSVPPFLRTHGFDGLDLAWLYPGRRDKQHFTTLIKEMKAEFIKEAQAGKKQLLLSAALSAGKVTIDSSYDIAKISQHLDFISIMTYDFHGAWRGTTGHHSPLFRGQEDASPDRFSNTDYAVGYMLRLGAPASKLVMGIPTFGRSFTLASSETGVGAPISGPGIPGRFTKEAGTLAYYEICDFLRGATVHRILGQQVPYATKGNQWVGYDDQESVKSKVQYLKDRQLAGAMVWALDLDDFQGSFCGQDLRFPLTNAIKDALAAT
# YKL-40 R301 = YKL-40 R301 (human); assay: BLI
# YKL-40 R301 (human), sequence (chain, as listed by the source): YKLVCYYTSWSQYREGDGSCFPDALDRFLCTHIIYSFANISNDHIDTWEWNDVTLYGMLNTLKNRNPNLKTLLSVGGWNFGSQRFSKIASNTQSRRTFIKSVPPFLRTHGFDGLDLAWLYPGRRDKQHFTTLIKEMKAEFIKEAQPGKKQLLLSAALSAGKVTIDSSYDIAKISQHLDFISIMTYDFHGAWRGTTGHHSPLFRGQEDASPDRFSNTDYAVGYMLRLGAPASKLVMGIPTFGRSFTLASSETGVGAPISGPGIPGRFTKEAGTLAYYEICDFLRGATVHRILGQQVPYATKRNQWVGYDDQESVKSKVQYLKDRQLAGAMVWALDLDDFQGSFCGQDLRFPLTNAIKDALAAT
# YKL-40 A302 = YKL-40 A302 (human); assay: BLI
# YKL-40 A145 = YKL-40 A145 (human); assay: BLI
# human YKL-40 WT = human YKL-40 WT (human); assay: BLI
# human YKL-40 WT (human), sequence (chain, as listed by the source): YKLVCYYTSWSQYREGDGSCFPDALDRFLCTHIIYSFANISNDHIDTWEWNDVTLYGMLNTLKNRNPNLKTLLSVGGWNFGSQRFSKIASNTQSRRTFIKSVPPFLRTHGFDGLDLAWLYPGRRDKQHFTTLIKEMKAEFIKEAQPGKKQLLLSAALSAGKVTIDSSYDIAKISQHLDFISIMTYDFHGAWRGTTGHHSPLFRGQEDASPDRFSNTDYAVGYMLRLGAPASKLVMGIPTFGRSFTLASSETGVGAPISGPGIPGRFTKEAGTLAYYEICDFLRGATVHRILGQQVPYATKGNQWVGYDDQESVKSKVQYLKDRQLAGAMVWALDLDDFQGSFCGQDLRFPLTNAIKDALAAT
# YKL-40 A44 = YKL-40 A44 (human); assay: BLI
# YKL-40 A44 (human), sequence (chain, as listed by the source): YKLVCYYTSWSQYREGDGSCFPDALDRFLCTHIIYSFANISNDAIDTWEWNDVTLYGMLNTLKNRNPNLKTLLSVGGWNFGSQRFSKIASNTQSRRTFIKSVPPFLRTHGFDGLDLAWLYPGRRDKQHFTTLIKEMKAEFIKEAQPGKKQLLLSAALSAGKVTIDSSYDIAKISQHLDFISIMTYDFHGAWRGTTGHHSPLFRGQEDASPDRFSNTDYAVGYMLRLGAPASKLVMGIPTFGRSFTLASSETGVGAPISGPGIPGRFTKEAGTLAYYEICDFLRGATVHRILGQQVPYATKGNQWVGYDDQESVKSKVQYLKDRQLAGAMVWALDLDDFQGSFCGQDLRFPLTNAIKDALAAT
# YKL-40 A287 = YKL-40 A287 (human); assay: BLI
# YKL-40 A93 = YKL-40 A93 (human); assay: BLI
# YKL-40 A149 = YKL-40 A149 (human); assay: BLI
# YKL-40 A149 (human), sequence (chain, as listed by the source): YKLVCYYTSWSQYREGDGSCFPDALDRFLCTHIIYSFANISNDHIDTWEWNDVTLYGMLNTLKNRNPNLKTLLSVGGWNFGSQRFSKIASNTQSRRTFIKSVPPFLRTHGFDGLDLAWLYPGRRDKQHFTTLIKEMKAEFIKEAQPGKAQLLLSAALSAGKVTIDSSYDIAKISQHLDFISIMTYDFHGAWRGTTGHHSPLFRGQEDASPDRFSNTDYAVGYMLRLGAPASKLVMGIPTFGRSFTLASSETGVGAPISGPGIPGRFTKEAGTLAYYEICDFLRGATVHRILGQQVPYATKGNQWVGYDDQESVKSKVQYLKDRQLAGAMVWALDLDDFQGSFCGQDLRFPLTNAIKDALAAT
# YKL-40 A92 = YKL-40 A92 (human); assay: BLI
# YKL-40 A92 (human), sequence (chain, as listed by the source): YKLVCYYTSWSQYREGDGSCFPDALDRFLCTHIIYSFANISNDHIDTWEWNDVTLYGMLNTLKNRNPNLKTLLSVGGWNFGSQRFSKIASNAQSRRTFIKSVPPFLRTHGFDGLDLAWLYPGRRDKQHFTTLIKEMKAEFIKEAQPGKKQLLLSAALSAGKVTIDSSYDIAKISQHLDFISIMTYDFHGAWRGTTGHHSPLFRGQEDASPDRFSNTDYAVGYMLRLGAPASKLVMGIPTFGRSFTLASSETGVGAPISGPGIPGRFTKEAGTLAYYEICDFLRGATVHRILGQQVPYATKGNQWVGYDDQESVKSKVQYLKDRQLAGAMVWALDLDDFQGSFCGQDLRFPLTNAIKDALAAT
# YKL-40 A135 = YKL-40 A135 (human); assay: BLI
# YKL-40 A135 (human), sequence (chain, as listed by the source): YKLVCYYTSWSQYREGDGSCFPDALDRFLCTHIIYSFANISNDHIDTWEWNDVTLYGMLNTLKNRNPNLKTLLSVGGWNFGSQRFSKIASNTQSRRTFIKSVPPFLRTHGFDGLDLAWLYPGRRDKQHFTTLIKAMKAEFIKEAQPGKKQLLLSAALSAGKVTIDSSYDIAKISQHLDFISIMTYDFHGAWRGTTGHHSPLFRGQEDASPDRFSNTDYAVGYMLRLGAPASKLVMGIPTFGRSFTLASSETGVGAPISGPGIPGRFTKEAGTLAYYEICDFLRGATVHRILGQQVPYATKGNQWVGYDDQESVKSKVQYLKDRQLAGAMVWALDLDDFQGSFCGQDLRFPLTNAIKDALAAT
# YKL-40 A191 = YKL-40 A191 (human); assay: BLI
# YKL-40 A194 = YKL-40 A194 (human); assay: BLI
# YKL-40 A108 = YKL-40 A108 (human); assay: BLI
# YKL-40 A108 (human), sequence (chain, as listed by the source): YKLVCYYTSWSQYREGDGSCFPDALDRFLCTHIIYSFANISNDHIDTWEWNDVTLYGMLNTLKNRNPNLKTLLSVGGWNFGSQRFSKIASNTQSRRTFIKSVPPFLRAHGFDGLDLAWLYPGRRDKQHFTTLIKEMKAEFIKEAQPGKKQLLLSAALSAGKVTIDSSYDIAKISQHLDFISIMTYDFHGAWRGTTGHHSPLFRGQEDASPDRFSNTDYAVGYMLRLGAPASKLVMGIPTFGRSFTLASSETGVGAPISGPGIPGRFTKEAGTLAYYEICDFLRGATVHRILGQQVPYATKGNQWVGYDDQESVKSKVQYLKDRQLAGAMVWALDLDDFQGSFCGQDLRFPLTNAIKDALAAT
# YKL-40 A283 = YKL-40 A283 (human); assay: BLI
# YKL-40 A134 = YKL-40 A134 (human); assay: BLI
# YKL-40 A134 (human), sequence (chain, as listed by the source): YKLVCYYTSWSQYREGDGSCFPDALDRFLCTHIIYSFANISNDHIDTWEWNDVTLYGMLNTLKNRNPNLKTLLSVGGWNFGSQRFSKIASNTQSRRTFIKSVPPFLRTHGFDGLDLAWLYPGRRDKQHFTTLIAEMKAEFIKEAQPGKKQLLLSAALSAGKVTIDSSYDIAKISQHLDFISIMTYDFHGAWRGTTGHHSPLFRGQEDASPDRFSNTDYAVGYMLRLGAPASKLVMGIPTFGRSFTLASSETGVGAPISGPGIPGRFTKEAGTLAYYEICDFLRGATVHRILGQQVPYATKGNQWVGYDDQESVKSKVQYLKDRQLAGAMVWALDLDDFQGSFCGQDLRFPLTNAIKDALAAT
# YKL-40 A249 = YKL-40 A249 (human); assay: BLI
# YKL-40 A192 = YKL-40 A192 (human); assay: BLI
# YKL-40 A96 = YKL-40 A96 (human); assay: BLI
# YKL-40 A250 = YKL-40 A250 (human); assay: BLI
# YKL-40 A172 = YKL-40 A172 (human); assay: BLI
# YKL-40 A172 (human), sequence (chain, as listed by the source): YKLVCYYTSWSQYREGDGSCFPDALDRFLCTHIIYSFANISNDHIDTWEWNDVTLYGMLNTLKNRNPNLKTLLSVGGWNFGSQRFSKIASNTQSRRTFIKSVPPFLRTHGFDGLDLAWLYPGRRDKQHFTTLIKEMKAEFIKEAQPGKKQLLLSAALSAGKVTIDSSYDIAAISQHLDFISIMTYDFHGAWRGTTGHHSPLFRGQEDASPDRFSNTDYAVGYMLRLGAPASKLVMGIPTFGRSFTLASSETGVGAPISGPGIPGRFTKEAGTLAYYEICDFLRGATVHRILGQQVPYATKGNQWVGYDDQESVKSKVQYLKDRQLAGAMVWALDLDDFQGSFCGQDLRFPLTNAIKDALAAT
# YKL-40 A289 = YKL-40 A289 (human); assay: BLI
# calmodulin = assay: other dot blot
# YKL-40 A42 (human), sequence (chain, as listed by the source): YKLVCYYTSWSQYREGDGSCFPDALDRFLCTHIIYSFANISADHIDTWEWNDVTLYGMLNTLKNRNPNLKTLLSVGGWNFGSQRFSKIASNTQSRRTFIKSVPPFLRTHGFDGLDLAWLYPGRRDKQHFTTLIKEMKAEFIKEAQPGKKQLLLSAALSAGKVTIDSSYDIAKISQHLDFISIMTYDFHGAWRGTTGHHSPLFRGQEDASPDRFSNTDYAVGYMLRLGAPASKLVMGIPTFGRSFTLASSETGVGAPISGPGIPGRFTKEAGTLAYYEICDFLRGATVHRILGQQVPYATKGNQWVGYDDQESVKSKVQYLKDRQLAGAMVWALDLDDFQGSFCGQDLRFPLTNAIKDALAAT
# YKL-40 A141 (human), sequence (chain, as listed by the source): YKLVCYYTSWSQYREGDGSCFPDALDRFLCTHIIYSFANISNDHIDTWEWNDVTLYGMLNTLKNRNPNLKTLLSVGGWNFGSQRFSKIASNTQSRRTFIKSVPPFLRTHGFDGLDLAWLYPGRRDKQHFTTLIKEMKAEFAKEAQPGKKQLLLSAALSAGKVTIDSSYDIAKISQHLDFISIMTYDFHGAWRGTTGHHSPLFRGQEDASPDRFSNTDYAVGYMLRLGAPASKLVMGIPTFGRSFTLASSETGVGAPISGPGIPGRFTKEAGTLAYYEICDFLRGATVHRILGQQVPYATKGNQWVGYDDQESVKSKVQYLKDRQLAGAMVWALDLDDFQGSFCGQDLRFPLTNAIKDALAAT
binder,measurement,setting,value
"H7 (antibody, V domains shown) VH: EVQLQQSGAELVKPGASVKLSCTASGFNIKDTYMHWVKQRPEQGLEWIGRIDPANGNTIYASKFQGKATITRDTSSNTAYMQLSSLTSGDTAVYYCTRGVYYYGGSFYAMDYWGQGTSVTVSS VL: DIQMTQSPASLSASVGETVTITCGASENIYGALNWYQRKQGKSPQLLIYGATTLADGMSSRFSGSGSGRQYSLKISSLHPDDVATYYCQNVLTTPWTFGGGTKLEIKT",Kd,YKL-40 A141,0.638 nM
same,Kd,YKL-40 A300,7.26 µM
same,Kd,YKL-40 A42,2540 nM
same,Kd,YKL-40 A175,0.684 nM
same,Kd,YKL-40 A107,0.611 nM
same,Kd,YKL-40 A256,104 nM
same,Kd,YKL-40 R284,52 µM
same,Kd,YKL-40 A100,0.906 nM
same,Kd,YKL-40 A288,0.649 nM
same,Kd,YKL-40 A104,0.423 nM
same,Kd,YKL-40 A286,0.472 nM
same,Kd,YKL-40 A148,0.817 nM
same,Kd,YKL-40 A142,0.79 nM
same,Kd,YKL-40 A146,0.773 nM
same,Kd,YKL-40 R301,0.753 nM
same,Kd,YKL-40 A302,0.673 nM
same,Kd,YKL-40 A145,0.465 nM
same,Kd,human YKL-40 WT,1180 nM
same,Kd,YKL-40 A44,0.439 nM
same,Kd,YKL-40 A287,164 nM
same,Kd,YKL-40 A93,0.777 nM
same,Kd,YKL-40 A149,0.84 nM
same,Kd,YKL-40 A92,33.9 nM
same,Kd,YKL-40 A135,0.755 nM
same,Kd,YKL-40 A191,4.8 µM
same,Kd,YKL-40 A194,20.6 µM
same,Kd,YKL-40 A108,0.529 nM
same,Kd,YKL-40 A283,1.07 nM
same,Kd,YKL-40 A134,0.516 nM
same,Kd,YKL-40 A249,2480 nM
same,Kd,YKL-40 A192,0.699 nM
same,Kd,YKL-40 A96,0.558 nM
same,Kd,YKL-40 A250,120 nM
same,Kd,YKL-40 A172,0.655 nM
same,Kd,YKL-40 A289,0.693 nM
B3-hFc (antibody) chain 1: MAEVQLLESGGGLVQPGGSLRLSCAASGFRDSDEDMGWVRQAPGKGLEWVSSISAPGGSTYYADSVKGRFTISRDNSKNTLYLQMNSLRAEDTAVYYCASHYNYGHWFDYWGQGTLVTVSSAA chain 2: VECPPCPAPPVAGPSVFLFPPKPKDTLMISRTPEVTCVVVDVSHEDPEVQFNWYVDGMEVHNAKTKPREEQFNSTFRVVSVLTVVHQDWLNGKEYKCKVSNKGLPAPIEKTISKTKGQPREPQVYTLPPSREEMTKNQVSLTCLVKGFYPSDIAVEWESNGQPENNYKTTPPMLDSDGSFFLYSKLTVDKSRWQQGNVFSCSVMHEALHNHYTQKSLSLSPGK,binding result,calmodulin,no binding
